The source of these data is patent US20230212543A1 (GENOVIS, published 2023).

Test [1] addresses T1, BSA (bovine serum albumin) (bovine, UniProt P02769 25-607).
T1 construct: Non-glycosylated control protein
Nature of the test: protein mix on immobilised LSH205A/E206A resin, SDS-PAGE (FIG. 11B).

The target of test [2] is T2, TNFαR (the TNFα binding part of etanercept) (human, UniProt P20333 23-257, O-glycosylated; pretreated with sialidase mixture in the binding assay).
T2 construct: also called TNFaR2; TNFaR
T2 sequence (looked up): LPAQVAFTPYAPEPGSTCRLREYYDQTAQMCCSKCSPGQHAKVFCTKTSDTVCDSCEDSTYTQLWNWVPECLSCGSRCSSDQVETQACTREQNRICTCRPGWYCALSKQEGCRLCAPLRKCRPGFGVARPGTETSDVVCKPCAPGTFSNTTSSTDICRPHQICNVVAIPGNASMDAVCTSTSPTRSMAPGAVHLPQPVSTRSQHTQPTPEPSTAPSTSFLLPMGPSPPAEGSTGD
Described as above.

Test [3] addresses T3, glycodrosocin (GD) (not fully specified (residue 11)).
T3 construct: also called glycodrosocin peptide
T3 peptide: GKPRPYSPRPTSHPRPIRV
Nature of the test: peptide mix on immobilised double-mutant resin, LC/MS of load, flow through and eluate (FIG. 19A).

The target in test [4] is T4, H2686.
T4 construct: Non-glycosylated peptide
T4 peptide: YIYGSFK
The description is as above.

In test [5] the target is T5, H4062.
T5 construct: Non-glycosylated peptide
T5 peptide: KKLVFFA
Described as above.

Test [6] addresses T6, H8390.
T6 construct: Non-glycosylated peptide
T6 peptide: FLPLILGKLVKGLL
The test is described as above.

Where no end group is shown, it is not given here.

T1 sequence (P02769 25-607 limits assumed): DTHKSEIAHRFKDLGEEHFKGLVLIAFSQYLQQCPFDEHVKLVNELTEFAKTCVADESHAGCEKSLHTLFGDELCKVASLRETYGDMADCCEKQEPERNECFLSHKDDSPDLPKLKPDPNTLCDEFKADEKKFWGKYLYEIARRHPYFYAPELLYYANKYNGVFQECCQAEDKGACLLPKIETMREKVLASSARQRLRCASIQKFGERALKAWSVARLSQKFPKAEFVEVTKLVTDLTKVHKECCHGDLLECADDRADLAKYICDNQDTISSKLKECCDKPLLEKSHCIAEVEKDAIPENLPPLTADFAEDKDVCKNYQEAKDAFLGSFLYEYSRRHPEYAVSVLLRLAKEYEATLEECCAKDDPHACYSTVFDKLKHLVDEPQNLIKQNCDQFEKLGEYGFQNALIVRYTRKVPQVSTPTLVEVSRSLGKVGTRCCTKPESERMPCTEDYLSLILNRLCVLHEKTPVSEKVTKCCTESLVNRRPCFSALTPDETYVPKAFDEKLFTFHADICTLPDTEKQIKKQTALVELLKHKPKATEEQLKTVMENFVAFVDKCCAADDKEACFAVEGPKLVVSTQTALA

B1: LSH205A/E206A (designed binder)
chain: MEVTVPDALKDRIALKKTARQLNIVYFLGSDTEPVPDYERRLSELLLYLQQFYGKEMQRHGYGARSFGLDIKSPGRVNIIEYKAKNPAAHYPYENGGGWKAAQELDEFFKAHPDRKKSQHTLIIMPTWNDEKNGPDNPGGVPFYGMGRNCFALDYPAFDIKHLGQKTREGRLLTKWYGGMAAALGHGLNLPHNHQTASDGKKYGTALMGSGNYTFGTSPTFLTPASCALLDACEVFSVTPSQQFYEGKPEVEVGDVAISFKGDQILVSGNYKSPQTVKALNVYIQDPPYAVNQDYDAVSFSRRLGKKSGKFSMKIDKKELEGLNNNEFRISLMFILANGLHMQKHFTFHWDALQDYRDGSKSGSGHHHHHH
notes: also called LSHE206AA; Amuc1119H205A/E206A
Take B1: the binding result in test [1] is recorded as “no binding”; in test [2], “binds”; in test [3], “binds”; in test [4], “no binding”; in test [5], “no binding”; in test [6] it was “no binding”.
